Experimental data as given in IntAct's records for PubMed 19940246.

B1: DNA-directed RNA polymerase subunit beta (Bacillus subtilis), P37870 (parent)
chain: MTGQLVQYGRHRQRRSYARISEVLELPNLIEIQTSSYQWFLDEGLREMFQDISPIEDFTGNLSLEFIDYSLGEPKYPVEESKERDVTYSAPLRVKVRLINKETGEVKDQDVFMGDFPIMTDTGTFIINGAERVIVSQLVRSPSVYFSGKVDKNGKKGFTATVIPNRGAWLEYETDAKDVVYVRIDRTRKLPVTVLLRALGFGSDQEILDLIGENEYLRNTLDKDNTENSDKALLEIYERLRPGEPPTVENAKSLLDSRFFDPKRYDLANVGRYKINKKLHIKNRLFNQRLAETLVDPETGEILAEKGQILDRRTLDKVLPYLENGIGFRKLYPNGGVVEDEVTLQSIKIFAPTDQEGEQVINVIGNAYIEEEIKNITPADIISSISYFFNLLHGVGDTDDIDHLGNRRLRSVGELLQNQFRIGLSRMERVVRERMSIQDTNTITPQQLINIRPVIASIKEFFGSSQLSQFMDQTNPLAELTHKRRLSALGPGGLTRERAGMEVRDVHYSHYGRMCPIETPEGPNIGLINSLSSYAKVNRFGFIETPYRRVDPETGKVTGRIDYLTADEEDNYVVAQANARLDDEGAFIDDSIVARFRGENTVVSRNRVDYMDVSPKQVVSAATACIPFLENDDSNRALMGANMQRQAVPLMQPEAPFVGTGMEYVSGKDSGAAVICKHPGIVERVEAKNVWVRRYEEVDGQKVKGNLDKYSLLKFVRSNQGTCYNQRPIVSVGDEVVKGEILADGPSMELGELALGRNVMVGFMTWDGYNYEDAIIMSERLVKDDVYTSIHIEEYESEARDTKLGPEEITRDIPNVGEDALRNLDDRGIIRIGAEVKDGDLLVGKVTPKGVTELTAEERLLHAIFGEKAREVRDTSLRVPHGGGGIIHDVKVFNREDGDELPPGVNQLVRVYIVQKRKISEGDKMAGRHGNKGVISKILPEEDMPYLPDGTPIDIMLNPLGVPSRMNIGQVLELHMGMAARYLGIHIASPVFDGAREEDVWETLEEAGMSRDAKTVLYDGRTGEPFDNRVSVGIMYMIKLAHMVDDKLHARSTGPYSLVTQQPLGGKAQFGGQRFGEMEVWALEAYGAAYTLQEILTVKSDDVVGRVKTYEAIVKGDNVPEPGVPESFKVLIKELQSLGMDVKILSGDEEEIEMRDLEDEEDAKQADGLALSGDEEPEETASADVERDVVTKE
partner: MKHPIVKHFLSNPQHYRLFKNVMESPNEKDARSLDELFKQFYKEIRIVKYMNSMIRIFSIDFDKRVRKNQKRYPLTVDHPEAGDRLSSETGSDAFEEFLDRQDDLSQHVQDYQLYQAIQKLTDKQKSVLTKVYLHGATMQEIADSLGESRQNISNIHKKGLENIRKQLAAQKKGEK
B2: Sigma-O factor regulatory protein RsoA (Bacillus subtilis), C0H3R4 (parent)
chain: MDGQFEQKKKQKDETYDIEHLIACFSPMIRKKLSNTSYQEREDLEQELKIKMFEKADMLLCQDVPGFWEFILYMVDENS

Variants of: B1
Details: with sigo_bacsu sigO

| Variant | effect of a mutation on the interaction |
| --- | --- |
| F865K | decreasing interaction |
| I864K | disrupting interaction |

Variants of: B2
Details: with rpoc_bacsu rpoC

| Variant | effect of a mutation on the interaction |
| --- | --- |
| L44A | decreasing interaction strength |
| L44E | decreasing interaction strength |
| D43A | decreasing interaction strength |
| D43N | decreasing interaction strength |
| Q46A | decreasing interaction strength |
| Q46E | decreasing interaction strength |
| R41A | decreasing interaction |
